Results taken from patent publication US20030199423A1 (published 2003).

T1: ICAM-R/IgG chimera, wild type (human, UniProt P32942 30-485)
T1 construct: also called ICAM-3/IgG; ICAM-R/Ig fusion protein
T1 chain: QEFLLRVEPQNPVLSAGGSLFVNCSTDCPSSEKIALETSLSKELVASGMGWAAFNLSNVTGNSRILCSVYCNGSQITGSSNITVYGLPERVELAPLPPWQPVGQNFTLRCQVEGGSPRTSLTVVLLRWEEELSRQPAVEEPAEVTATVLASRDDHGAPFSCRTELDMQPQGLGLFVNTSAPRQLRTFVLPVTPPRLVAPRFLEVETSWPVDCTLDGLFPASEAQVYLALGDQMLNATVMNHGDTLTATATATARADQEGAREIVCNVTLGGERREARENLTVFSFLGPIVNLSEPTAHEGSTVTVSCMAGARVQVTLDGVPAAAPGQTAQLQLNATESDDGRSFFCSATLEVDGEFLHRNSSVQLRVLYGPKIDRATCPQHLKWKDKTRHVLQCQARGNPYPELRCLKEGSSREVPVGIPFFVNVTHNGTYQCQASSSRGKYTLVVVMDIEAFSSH

T2: ICAM-R mutant F21V/AS (human, UniProt P32942 30-547)
T2 construct: on transfected COS cells
T2 chain: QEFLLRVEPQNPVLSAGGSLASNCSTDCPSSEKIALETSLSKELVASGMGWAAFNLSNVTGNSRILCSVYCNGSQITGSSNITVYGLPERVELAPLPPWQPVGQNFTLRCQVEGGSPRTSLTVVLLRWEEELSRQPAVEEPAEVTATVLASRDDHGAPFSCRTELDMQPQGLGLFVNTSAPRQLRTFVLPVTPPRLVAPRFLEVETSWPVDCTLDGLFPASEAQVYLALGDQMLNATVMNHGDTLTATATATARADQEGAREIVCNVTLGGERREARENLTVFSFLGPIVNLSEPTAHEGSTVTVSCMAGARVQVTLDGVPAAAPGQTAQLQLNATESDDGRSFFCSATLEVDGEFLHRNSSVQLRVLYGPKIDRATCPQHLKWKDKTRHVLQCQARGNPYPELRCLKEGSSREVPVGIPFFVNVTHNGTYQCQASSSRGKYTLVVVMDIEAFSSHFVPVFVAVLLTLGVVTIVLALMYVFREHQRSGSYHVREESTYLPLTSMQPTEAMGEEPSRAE

T3: macaque ICAM-R on peripheral blood leukocytes (Macaca fascicularis, UniProt A0A2K5TJA8 30-547)
T3 construct: whole, on cells; also called monkey PBL; macaque leukocytes
T3 sequence: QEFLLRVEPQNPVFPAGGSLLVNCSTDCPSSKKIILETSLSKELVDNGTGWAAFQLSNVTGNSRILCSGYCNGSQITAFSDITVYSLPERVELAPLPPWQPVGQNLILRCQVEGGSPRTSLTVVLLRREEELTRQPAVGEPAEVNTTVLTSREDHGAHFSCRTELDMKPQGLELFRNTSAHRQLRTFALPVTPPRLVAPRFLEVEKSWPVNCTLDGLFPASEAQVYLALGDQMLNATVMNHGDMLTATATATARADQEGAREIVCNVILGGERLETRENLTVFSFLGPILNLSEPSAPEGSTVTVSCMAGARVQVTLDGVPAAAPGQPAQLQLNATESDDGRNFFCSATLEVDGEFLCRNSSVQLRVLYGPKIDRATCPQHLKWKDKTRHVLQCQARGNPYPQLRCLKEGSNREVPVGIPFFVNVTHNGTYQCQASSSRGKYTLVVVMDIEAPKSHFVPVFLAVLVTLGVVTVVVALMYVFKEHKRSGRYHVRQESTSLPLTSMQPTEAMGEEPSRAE

B1: humanized ICR-1.1 antibody HuVHK/HuVKP (antibody, human IgG4, V domains shown)
VH: QVQLVQSGAEVKKPGASVKVSCKASGYTFTVYWMHWVRQAPGQGLEWMGYINPNTDYTEYNQRFQDRVTITADKSTSTAYMELSSLRSEDTAVYYCARWGGNSYGLDYWGQGTLVTVSS
VL: DIQMTQSPSSLSASVGDRVTITCSASSSVSYIYWYQQKPGKAPKPLIYLTSNLASGVPSRFSGSGSGTDFTLTISSLQPEDFATYYCQQWKSIPLTFGQGTKLEIK
notes: human IgG4, human kappa
B2: soluble human ICAM-R (receptor)
chain: QEFLLRVEPQNPVLSAGGSLFVNCSTDCPSSEKIALETSLSKELVASGMGWAAFNLSNVTGNSRILCSVYCNGSQITGSSNITVYGLPERVELAPLPPWQPVGQNFTLRCQVEGGSPRTSLTVVLLRWEEELSRQPAVEEPAEVTATVLASRDDHGAPFSCRTELDMQPQGLGLFVNTSAPRQLRTFVLPVTPPRLVAPRFLEVETSWPVDCTLDGLFPASEAQVYLALGDQMLNATVMNHGDTLTATATATARADQEGAREIVCNVTLGGERREARENLTVFSFLGPIVNLSEPTAHEGSTVTVSCMAGARVQVTLDGVPAAAPGQTAQLQLNATESDDGRSFFCSATLEVDGEFLHRNSSVQLRVLYGPKIDRATCPQHLKWKDKTRHVLQCQARGNPYPELRCLKEGSSREVPVGIPFFVNVTHNGTYQCQASSSRGKYTLVVVMDIEAFSSH
notes: baculovirus, Sf-9 cells, lentil lectin purified; also called shICAM-R; soluble ICAM-R
B3: ICAM-2/IgG fusion protein (Fc fusion, not shown: a dimerising Fc or GST)
chain: KVFEVHVRPKKLAVEPKGSLEVNCSTTCNQPEVGGLETSLDKILLDEQAQWKHYLVSNISHDTVLQCHFTCSGKQESMNSNVSVYQPPRQVILTLQPTLVAVGKSFTIECRVPTVEPLDSLTLFLFRGNETLHYETFGKAAPAPQEATATFNSTADREDGHRNFSCLAVLDLMSRGGNIFHKHSAPKMLEIYEPVSDSQ
B4: monoclonal antibody ICR-1.1 (antibody, mouse IgG2a, V domains shown)
VH: QVQLQQSGAELAKPGASVKMSCKASGYTFTVYWMHWVKQRPGQGLEWIGYINPNTDYTEYNQRFQDKATLTADKSSSTAYMQLSSLTSEDSAVYYCARWGGNSYGLDYWGQGTSVTVSS
VL: QIVLTQSPALMSASPGEKVTMTCSASSSVSYIYWYQQKPRSSPKPWIYLTSNLASGVPARFSGSGSGASYSLTISIMEAEDAATYYCQQWKSIPLTFGAGTKLELK
notes: murine IgG2a, kappa; hybridoma ATCC HB 11053; also called 26E3D; 26E3D-1
B5: monoclonal antibody ICR-8.1 (antibody, mouse IgG1, V domains shown)
VH: EIQLQQTGPELVKPGASVKISCKASGYSFTDCIILWVKQSHGKGLEWIGKINPYFGTTTYNLKFKGKATLTVDKSSSTAHMQLNSLTSEDSAVYYCARKEAYPDAMDYWGQGTSVTVSS
VL: DAVMTQTPLSLPVSLGDQASISCRSSQSLVHSNGDTYLHWYLQKPGQSPQLLIYKVSNRFSGVPDRFSGSGSGTDFTLKLSRVEAEDLGVYFCSQSTHVPYTFGGGTKLEIK
notes: murine IgG1, kappa; hybridoma ATCC HB 11232; also called 46D7E

Key:
[1] = target: T1, ICAM-R/IgG chimera, wild type; assay: ELISA on ICAM-R/Ig fusion protein
soluble human ICAM-R = target: B2; assay: ELISA on coated baculovirus soluble ICAM-R
Gp 150,95 (CD18/CD11c) = target: T4, Gp 150,95 (CD18/CD11c) (UniProt P20702 20-1163; P05107 23-769); assay: shICAM-R coated fluorescent beads on wells coated with purified Gp 150,95
T4 construct: purified, coated on plastic
T4 sequence (P20702 20-1163 limits assumed, chain 1 of 2): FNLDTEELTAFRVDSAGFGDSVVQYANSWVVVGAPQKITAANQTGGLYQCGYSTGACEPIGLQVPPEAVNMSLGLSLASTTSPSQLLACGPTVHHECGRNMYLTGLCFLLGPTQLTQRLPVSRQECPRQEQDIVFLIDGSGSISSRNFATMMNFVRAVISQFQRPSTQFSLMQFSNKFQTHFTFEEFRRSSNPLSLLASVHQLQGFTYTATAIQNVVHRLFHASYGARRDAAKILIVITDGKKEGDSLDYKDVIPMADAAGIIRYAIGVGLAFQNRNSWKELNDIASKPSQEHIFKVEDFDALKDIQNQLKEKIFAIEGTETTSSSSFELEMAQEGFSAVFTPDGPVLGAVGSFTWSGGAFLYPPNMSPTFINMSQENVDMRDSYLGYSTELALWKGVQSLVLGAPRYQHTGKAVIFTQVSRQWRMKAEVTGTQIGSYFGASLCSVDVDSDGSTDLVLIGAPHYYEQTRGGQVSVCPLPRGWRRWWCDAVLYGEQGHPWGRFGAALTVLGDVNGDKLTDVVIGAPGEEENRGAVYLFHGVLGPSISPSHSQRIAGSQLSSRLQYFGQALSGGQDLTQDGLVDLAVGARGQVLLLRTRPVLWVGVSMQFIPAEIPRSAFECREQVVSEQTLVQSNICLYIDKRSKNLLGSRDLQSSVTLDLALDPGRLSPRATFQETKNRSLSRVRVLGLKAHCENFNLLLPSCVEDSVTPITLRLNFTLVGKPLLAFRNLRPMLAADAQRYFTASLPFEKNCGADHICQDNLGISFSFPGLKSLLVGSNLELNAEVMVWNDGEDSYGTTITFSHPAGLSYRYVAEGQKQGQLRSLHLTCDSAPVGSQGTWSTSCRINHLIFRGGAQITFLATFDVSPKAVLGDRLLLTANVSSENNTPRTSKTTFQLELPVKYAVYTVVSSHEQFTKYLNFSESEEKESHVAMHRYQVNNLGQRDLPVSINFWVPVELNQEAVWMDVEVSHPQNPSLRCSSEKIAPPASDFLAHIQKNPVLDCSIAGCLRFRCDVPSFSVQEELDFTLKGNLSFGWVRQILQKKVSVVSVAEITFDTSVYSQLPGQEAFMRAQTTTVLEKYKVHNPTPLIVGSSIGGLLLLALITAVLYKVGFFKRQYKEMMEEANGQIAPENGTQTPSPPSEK
T4 sequence (P05107 23-769 limits assumed, chain 2 of 2): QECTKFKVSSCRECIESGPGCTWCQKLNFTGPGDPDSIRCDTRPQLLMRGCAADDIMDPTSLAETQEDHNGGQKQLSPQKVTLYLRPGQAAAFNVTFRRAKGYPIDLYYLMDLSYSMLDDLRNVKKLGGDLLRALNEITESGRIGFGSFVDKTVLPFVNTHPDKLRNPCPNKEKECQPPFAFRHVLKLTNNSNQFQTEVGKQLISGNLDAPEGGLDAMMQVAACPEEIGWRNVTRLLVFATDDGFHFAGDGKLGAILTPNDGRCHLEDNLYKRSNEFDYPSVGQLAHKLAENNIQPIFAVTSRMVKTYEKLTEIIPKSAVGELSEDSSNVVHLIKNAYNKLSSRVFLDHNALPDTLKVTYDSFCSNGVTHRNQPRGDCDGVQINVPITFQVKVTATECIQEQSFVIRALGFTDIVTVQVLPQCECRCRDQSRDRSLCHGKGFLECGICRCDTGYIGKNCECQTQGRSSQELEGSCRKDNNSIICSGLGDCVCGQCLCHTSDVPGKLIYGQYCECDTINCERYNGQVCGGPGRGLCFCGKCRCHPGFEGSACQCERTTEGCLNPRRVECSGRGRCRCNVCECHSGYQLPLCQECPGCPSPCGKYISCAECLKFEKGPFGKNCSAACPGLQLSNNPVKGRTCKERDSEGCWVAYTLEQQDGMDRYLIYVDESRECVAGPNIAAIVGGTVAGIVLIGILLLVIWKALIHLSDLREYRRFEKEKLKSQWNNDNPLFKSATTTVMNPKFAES

Mac-1 (CD18/CD11b) = Mac-1 (CD18/CD11b) (UniProt P11215 17-1152; P05107 23-769); assay: neutrophil adhesion to coated chimeras with blocking antibodies
ICAM-R mutant F21V/AS = target: T2, ICAM-R mutant F21V/AS; assay: FACS on COS transfectants
[2] = target: T3, macaque ICAM-R on peripheral blood …; assay: FACS on Macaca fascicularis PBL

Row | Binder | binding result (ICAM-R mutant F21V/AS) | binding result [2] | other results
1 | B1 | – | – | binding relative to the chimeric antibody (MuVH/MuVK) [1]: ≤ 50 % difference; binding relative to the chimeric antibody (MuVH/MuVK) (soluble human ICAM-R): ≤ 50 % difference
2 | B2 | – | – | binding result (Gp 150,95 (CD18/CD11c)): binds
3 | B3 | – | – | binding result (Mac-1 (CD18/CD11b)): binds
4 | B4 | no binding | no binding | –
5 | B5 | no binding | no binding | –
